Numbering of substitutions follows the chain as printed. Blank lines part the entries; values can stand above or below the binder they belong to.
What was measured:
[1] = target: T1, P26 (human, UniProt P02771 381-609, limits assumed); test: ELISA, format not described; set-up: unit not given here
T1 construct: also called AFP p26
T1 sequence: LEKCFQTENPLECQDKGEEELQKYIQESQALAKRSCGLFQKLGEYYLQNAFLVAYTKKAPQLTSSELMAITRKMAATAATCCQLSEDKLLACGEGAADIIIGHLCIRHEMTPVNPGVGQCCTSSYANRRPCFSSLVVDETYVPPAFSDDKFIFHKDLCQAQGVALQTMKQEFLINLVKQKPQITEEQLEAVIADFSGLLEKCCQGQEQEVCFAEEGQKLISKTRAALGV

[2] = target: T2, CD123 (Homo sapiens (Human), UniProt P26951 19-305, limits assumed); test: ELISA, format not described; set-up: unit not given here
T2 construct: also called CD123-Signal
T2 sequence: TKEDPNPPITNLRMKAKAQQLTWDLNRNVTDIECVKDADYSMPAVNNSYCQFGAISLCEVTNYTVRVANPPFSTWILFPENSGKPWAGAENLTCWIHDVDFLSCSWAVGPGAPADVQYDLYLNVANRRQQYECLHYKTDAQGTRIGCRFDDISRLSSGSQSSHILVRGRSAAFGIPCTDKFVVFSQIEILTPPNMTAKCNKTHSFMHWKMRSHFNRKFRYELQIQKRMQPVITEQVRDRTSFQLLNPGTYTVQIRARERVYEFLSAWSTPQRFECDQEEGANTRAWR

ELISA_avg [1]: 29.9
B1: D domain SEQ ID NO: 977 (designed binder)
chain: MGSWIAFKDHLAIIKQRLEALGGSEAELARFEFEIAWFEWMLQYYKGKGNPEVEALRKEAAAIRDELQAYRHN

ELISA_avg [2]: 3.6
B2: D domain SEQ ID NO: 666 (designed binder)
chain: MGSWYEFWRRLDAIEERLWALGGSEAELAMFETDIAGFEWMLQLYKGKGNPEVEALEHEAWAINSELDAYRHN

ELISA_avg [1]: 19.4
B3: D domain SEQ ID NO: 953 (designed binder)
chain: MGSWYIFKQELASIKLSLEALGGSEAELAHFEAEIAWFEWWLQWYKGKGNPEVEALRKEAAAIRDELQAYRHN

ELISA_avg [1]: 20.6
B4: D domain SEQ ID NO: 980 (designed binder)
chain: MGSWKNFKLELALIKSKLEALGGSEAELAQFEADIAFFEWSLQWYKGKGNPEVEALRKEAAAIRDELQAYRHN

ELISA_avg [1]: 31.1
B5: D domain SEQ ID NO: 946 (designed binder)
chain: MGSWYLFKNELAWIKWRLEALGGSEAELADFEMVIAMFEDHLQEYKGKGNPEVEALRKEAAAIRDELQAYRHN

ELISA_avg [1]: 21.5
B6: D domain SEQ ID NO: 956 (designed binder)
chain: MGSWYWFKYELAEIKWHLEALGGSEAELAHFEHSIAVFESQLQQYKGKGNPEVEALRKEAAAIRDELQAYRHN

ELISA_avg [1]: 30.1
B7: D domain SEQ ID NO: 951 (designed binder)
chain: MGSWYFFKSRLAYIKVYLEALGGSEAELAGFEWEIAHFEEWLQRYKGKGNPEVEALRKEAAAIRDELQAYRHN

ELISA_avg [1]: 29.6
B8: D domain SEQ ID NO: 952 (designed binder)
chain: B7 chain with F6I, R10E, Y13W, V16W, G30N, W33V, H37T, E40T, R44G

ELISA_avg [1]: 20.1
B9: D domain SEQ ID NO: 955 (designed binder)
chain: MGSWYLFKTELAAIKYRLEALGGSEAELASFEYEIAWFEHILQFYKGKGNPEVEALRKEAAAIRDELQAYRHN

ELISA_avg [2]: 4
B10: D domain SEQ ID NO: 663 (designed binder)
chain: MGSWVEFYDRLEAIEIRLWALGGSEAELADFESFIAHFEDDLQAYKGKGNPEVEALMDEANAIVFELDAYRHN

ELISA_avg [1]: 24.1
B11: D domain SEQ ID NO: 984 (designed binder)
chain: MGSWNNFKSSLASIKQVLEALGGSEAELAVFELQIAHFERELQYYKGKGNPEVEALRKEAAAIRDELQAYRHN

ELISA_avg [1]: 8.6
B12: D domain SEQ ID NO: 982 (designed binder)
chain: MGSWVVFKSSLAQIKILLEALGGSEAELAIFEVKIAHFEQELQEYKGKGNPEVEALRKEAAAIRDELQAYRHN

ELISA_avg [1]: 15.6
B13: D domain SEQ ID NO: 983 (designed binder)
chain: B12 chain with V5D, V6Q, S9N, Q13S, I16R, L17V, Q40H, E41F, E44Q

ELISA_avg [1]: 17.8
B14: D domain SEQ ID NO: 979 (designed binder)
chain: MGSWMVFKQDLAEIKANLEALGGSEAELADFEFAIAWFEYELQWYKGKGNPEVEALRKEAAAIRDELQAYRHN

ELISA_avg [1]: 30.4
B15: D domain SEQ ID NO: 965 (designed binder)
chain: MGSWTHFKEDLAHIKDRLEALGGSEAELAAFELDIAWFEFMLQYYKGKGNPEVEALRKEAAAIRDELQAYRHN

ELISA_avg [1]: 32.3
B16: D domain SEQ ID NO: 967 (designed binder)
chain: B15 chain with T5Y, H6T, E9G, D10S, H13E, D16N, A30M, L33S, Y44F

ELISA_avg [1]: 30.8
B17: D domain SEQ ID NO: 968 (designed binder)
chain: B15 chain with T5F, H6T, E9D, H13Q, D16N, A30N, L33M, D34S

ELISA_avg [1]: 16.6
B18: D domain SEQ ID NO: 972 (designed binder)
chain: B15 chain with T5S, H6I, E9Q, H13D, R17S, A30M, L33M, F40H, M41T

ELISA_avg [1]: 16.7
B19: D domain SEQ ID NO: 960 (designed binder)
chain: B15 chain with T5I, H6I, E9T, H13R, D16N, R17Y, A30T, L33R, Y44I

ELISA_avg [1]: 27.9
B20: D domain SEQ ID NO: 973 (designed binder)
chain: B15 chain with T5E, H6I, E9D, H13S, D16K, R17V, A30L, L33S, F40L

ELISA_avg [1]: 30.3
B21: D domain SEQ ID NO: 975 (designed binder)
chain: B15 chain with T5S, H6V, E9D, H13Q, A30Q, F40Y, M41V, Y44F

ELISA_avg [1]: 11.1
B22: D domain SEQ ID NO: 959 (designed binder)
chain: B15 chain with T5V, H6Y, E9H, D10R, H13E, R17Q, A30E, L33T, F40W

ELISA_avg [1]: 30.4
B23: D domain SEQ ID NO: 970 (designed binder)
chain: MGSWVEFKRDLANIKQRLEALGGSEAELAQFEMQIAWFEHTLQYYKGKGNPEVEALRKEAAAIRDELQAYRHN

ELISA_avg [1]: 14.2
B24: D domain SEQ ID NO: 964 (designed binder)
chain: B15 chain with T5F, H6V, H13G, D16F, R17I, A30M, L33T, F40Y

ELISA_avg [1]: 22.1
B25: D domain SEQ ID NO: 958 (designed binder)
chain: MGSWVYFKDHLAEIKSQLEALGGSEAELALFEYDIAWFEFILQYYKGKGNPEVEALRKEAAAIRDELQAYRHN

ELISA_avg [1]: 18.6
B26: D domain SEQ ID NO: 963 (designed binder)
chain: B15 chain with T5L, H6A, D16S, R17I, A30E, L33H, F40Y

ELISA_avg [1]: 18.9
B27: D domain SEQ ID NO: 961 (designed binder)
chain: B14 chain with V6H, A16G, N17Y, D30I, F33M, A34D, E41M, W44Y

ELISA_avg [1]: 11.6
B28: D domain SEQ ID NO: 971 (designed binder)
chain: B23 chain with V5S, E6Y, R9E, Q16S, R17S, Q30W, M33S, Q34S

ELISA_avg [1]: 31.5
B29: D domain SEQ ID NO: 966 (designed binder)
chain: B15 chain with T5Y, H6Y, D10R, H13A, A30I, L33A

ELISA_avg [1]: 29.7
B30: D domain SEQ ID NO: 969 (designed binder)
chain: B23 chain with E6L, R9Q, N13M, Q30M, M33Y, Q34D, T41M

ELISA_avg [1]: 17.4
B31: D domain SEQ ID NO: 962 (designed binder)
chain: B14 chain with M5Q, V6I, E13A, A16D, N17Y, D30I, A34D, Y40H, E41M

ELISA_avg [1]: 25.6
B32: D domain SEQ ID NO: 974 (designed binder)
chain: B15 chain with T5S, H6I, E9D, H13V, D16E, A30H, L33Q, F40H, M41L

ELISA_avg [1]: 24.1
B33: D domain SEQ ID NO: 976 (designed binder)
chain: MGSWAVFKDSLAHIKDVLEALGGSEAELALFEMDIAWFEYVLQDYKGKGNPEVEALRKEAAAIRDELQAYRHN

ELISA_avg [1]: 12.1
B34: D domain SEQ ID NO: 949 (designed binder)
chain: MGSWTLFKWDLAFIKWQLEALGGSEAELAWFEYEIAAFEDSLQNYKGKGNPEVEALRKEAAAIRDELQAYRHN

ELISA_avg [1]: 23.3
B35: D domain SEQ ID NO: 950 (designed binder)
chain: B34 chain with T5I, W9E, Y33T, E34T, A37N, D40S, S41D, N44K

ELISA_avg [2]: 10.6
B36: D domain SEQ ID NO: 660 (designed binder)
chain: MGSWYEFEQRLGAIEERLWALGGSEAELAAFEDIIAYFEYQLQSYKGKGNPEVEALDEEAWAIDDELWAYRHN

ELISA_avg [1]: 25.6
B37: D domain SEQ ID NO: 981 (designed binder)
chain: MGSWHSFKQDLAYIKYLLEALGGSEAELAQFEELIAFFEYYLQTYKGKGNPEVEALRKEAAAIRDELQAYRHN

ELISA_avg [2]: 4.7
B38: D domain SEQ ID NO: 661 (designed binder)
chain: MGSWWEFEQRLDAIETRLWALGGSEAELAYFEHIIADFEDELQIYKGKGNPEVEALGWEAFAIDGELTAYRHN

ELISA_avg [2]: 3.1
B39: D domain SEQ ID NO: 662 (designed binder)
chain: MGSWFEFPYRLEAIEERLYALGGSEAELAQFEQFIAWFEMDLQDYKGKGNPEVEALWFEANAIVEELDAYRHN

ELISA_avg [1]: 19.8
B40: D domain SEQ ID NO: 948 (designed binder)
chain: MGSWMYFKSHLAWIKWELEALGGSEAELAFFEDNIAQFEYWLQLYKGKGNPEVEALRKEAAAIRDELQAYRHN

ELISA_avg [2]: 10
B41: D domain SEQ ID NO: 664 (designed binder)
chain: MGSWVEFWDRLDAIEERLWALGGSEAELAEFEFMIAMFEQHLQEYKGKGNPEVEALIPEAGAIDKELTAYRHN

ELISA_avg [1]: 18.6
B42: D domain SEQ ID NO: 957 (designed binder)
chain: MGSWWVFKKTLAEIKWTLEALGGSEAELAYFEAEIAFFEFILQQYKGKGNPEVEALRKEAAAIRDELQAYRHN

ELISA_avg [2]: 4.3
B43: D domain SEQ ID NO: 665 (designed binder)
chain: MGSWDEFDARLWAIEERLWALGGSEAELAEFEFMIAAFEDVLQEYKGKGNPEVEALMGEANAIVMELDAYRHN

ELISA_avg [1]: 20.8
B44: D domain SEQ ID NO: 947 (designed binder)
chain: MGSWVYFKAHLAFIKWELEALGGSEAELANFESTIAEFEKYLQVYKGKGNPEVEALRKEAAAIRDELQAYRHN

ELISA_avg [1]: 17.9
B45: D domain SEQ ID NO: 978 (designed binder)
chain: MGSWIHFKNDLAVIKDELEALGGSEAELARFEIMIAWFEDALQWYKGKGNPEVEALRKEAAAIRDELQAYRHN

ELISA_avg [1]: 20.5
B46: D domain SEQ ID NO: 954 (designed binder)
chain: MGSWVRFKTELAYIKESLEALGGSEAELAMFESEIAIFEHSLQTYKGKGNPEVEALRKEAAAIRDELQAYRHN
